Each block holds one binder with its values, some of them ahead of it.
Columns and labels:
[1] = target: T1, TNFRSF1A, endogenous in A375 melanoma cells (human, UniProt P19438 30-455, poly-LacNAc glycosylation added by B3GNT2 (sites not given)); assay: co-IP of FLAG tagged B3GNT2 from A375 lysate, Western blot
T1 construct: whole, on cells; In the co-IP it comes from the lysate of A375 cells
T1 sequence (looked up): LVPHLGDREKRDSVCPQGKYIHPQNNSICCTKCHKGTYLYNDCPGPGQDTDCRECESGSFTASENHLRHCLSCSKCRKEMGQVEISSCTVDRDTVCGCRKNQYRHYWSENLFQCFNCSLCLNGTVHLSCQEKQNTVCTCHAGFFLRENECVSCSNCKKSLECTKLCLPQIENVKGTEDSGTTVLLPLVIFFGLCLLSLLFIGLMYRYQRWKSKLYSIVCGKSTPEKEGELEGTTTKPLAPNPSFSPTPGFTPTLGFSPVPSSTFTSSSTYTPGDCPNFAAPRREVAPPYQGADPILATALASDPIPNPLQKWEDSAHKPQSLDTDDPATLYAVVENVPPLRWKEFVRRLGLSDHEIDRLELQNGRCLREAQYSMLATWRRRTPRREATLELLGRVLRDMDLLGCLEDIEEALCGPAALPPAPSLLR
Experimental: (§1) Cells were plated in 10-cm cell culture dishes and grown to 60-80% confluency. For each condition, two biological replicates were harvested for co-IP. Cells were washed with PBS and 4 mL of lysis buffer (20 mM HEPES, 1% Triton X-100, 150 mM NaCl, 1 mM EDTA, and 10% glycerol) containing protease inhibitor cocktail was added. Cells were scraped and lysate was incubated at 4° C. under rotary agitation for 1 h. Lysate was centrifuged at 14,000×g for 10 min at 4° C. Supernatant was transferred to a new tube and an aliquot was taken as the input. […] For Western blots, 10 μg/mL Chicken Anti-FLAG (Aves labs ET-DY100) and IgY control (R&D Systems AB-101-C) antibodies were biotinylated (Thermo Fisher Scientific 90407) and added to the respective conditions. Lysates with antibodies were incubated at 4° C. under rotary agitation overnight. For each mL of lysate, 50 μL of Pierce Protein A/G Magnetic Beads (Mass spectrometry; Thermo Fisher Scientific 88803) or Pierce Streptavidin Magnetic Beads (Western blot; Thermo Fisher Scientific 88817) was washed twice with lysis buffer. Lysates with antibodies were added to the beads and incubated at 4° C. under rotary agitation for 4 h. Beads were washed with lysis buffer 3 times and resuspended in lysis buffer for storage.

[2] = target: T2, CD276, endogenous in A375 melanoma cells (human, UniProt Q5ZPR3 29-534, poly-LacNAc glycosylation added by B3GNT2 (sites not given)); assay: as above
T2 construct: whole, on cells; On fixed A375 cells in flow cytometry; In the co-IP it comes from the lysate of these cells; also called B7H3
T2 sequence (looked up): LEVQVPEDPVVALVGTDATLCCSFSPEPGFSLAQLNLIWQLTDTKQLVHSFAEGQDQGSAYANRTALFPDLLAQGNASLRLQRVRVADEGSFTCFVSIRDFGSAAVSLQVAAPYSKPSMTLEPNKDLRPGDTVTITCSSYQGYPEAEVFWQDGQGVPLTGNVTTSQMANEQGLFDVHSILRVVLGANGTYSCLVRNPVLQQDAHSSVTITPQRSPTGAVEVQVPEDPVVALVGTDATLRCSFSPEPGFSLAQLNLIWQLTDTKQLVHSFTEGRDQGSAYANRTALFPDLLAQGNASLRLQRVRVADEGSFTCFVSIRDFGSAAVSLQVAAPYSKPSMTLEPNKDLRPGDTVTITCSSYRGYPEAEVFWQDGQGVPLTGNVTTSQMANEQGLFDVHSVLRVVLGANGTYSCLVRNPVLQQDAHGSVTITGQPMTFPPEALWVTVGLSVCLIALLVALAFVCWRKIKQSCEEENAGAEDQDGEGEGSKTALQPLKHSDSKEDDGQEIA
Experimental: as §1

[3] = target: T3, IFNAR1, endogenous in A375 melanoma cells (human, UniProt P17181 28-557, poly-LacNAc glycosylation added by B3GNT2 (sites not given)); assay: as above
T3 construct: whole, on cells; In the co-IP it comes from the lysate of A375 cells; also called IFNARI
T3 sequence (looked up): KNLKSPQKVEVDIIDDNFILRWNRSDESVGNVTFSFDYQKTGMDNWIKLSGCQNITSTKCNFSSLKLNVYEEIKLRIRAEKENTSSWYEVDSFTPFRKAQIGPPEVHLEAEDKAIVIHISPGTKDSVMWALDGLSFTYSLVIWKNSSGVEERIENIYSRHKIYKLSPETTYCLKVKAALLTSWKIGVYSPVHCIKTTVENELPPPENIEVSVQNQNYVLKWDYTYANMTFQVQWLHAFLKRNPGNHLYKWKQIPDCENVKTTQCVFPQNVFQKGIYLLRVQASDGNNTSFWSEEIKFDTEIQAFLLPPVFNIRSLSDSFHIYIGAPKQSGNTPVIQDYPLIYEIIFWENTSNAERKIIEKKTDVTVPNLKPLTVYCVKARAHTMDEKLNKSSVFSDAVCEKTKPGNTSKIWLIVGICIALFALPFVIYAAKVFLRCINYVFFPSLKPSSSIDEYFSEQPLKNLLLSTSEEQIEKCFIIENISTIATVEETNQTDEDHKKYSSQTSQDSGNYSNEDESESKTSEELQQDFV
Experimental: as §1

PSMD4 = target: T4, PSMD4 (human, UniProt P55036 1-377, limits assumed); assay: co-IP with anti-FLAG, mass spectrometry; lysate of cells with C-FLAG B3GNT2
T4 construct: also called NP_001317621.1 (+1)
Experimental: as §1
(§2) Magnetic beads were resuspended in 100 mM Tris pH 7.8, reduced, alkylated and digested with trypsin at 37° ° C. overnight. This solution was subjected to solid phase extraction to concentrate the peptides and remove unwanted reagents followed by injection onto a Shimadzu HPLC with fraction collector. Eight fractions were collected and after concentration were injected on a Waters NanoAcquity HPLC equipped with a self-packed Aeris 3 μm C18 analytical column 0.075 mm by 20 cm, (Phenomenex). Peptides were eluted using standard reverse-phase gradients. The effluent from the column was analyzed using a Thermo Orbitrap Elite mass spectrometer (nanospray configuration) operated in a data dependent manner for 54 minutes. […]

MARS = target: T5, MARS (human, UniProt P56192 1-900); assay: as above
T5 construct: also called NP_004981.2
T5 sequence (looked up): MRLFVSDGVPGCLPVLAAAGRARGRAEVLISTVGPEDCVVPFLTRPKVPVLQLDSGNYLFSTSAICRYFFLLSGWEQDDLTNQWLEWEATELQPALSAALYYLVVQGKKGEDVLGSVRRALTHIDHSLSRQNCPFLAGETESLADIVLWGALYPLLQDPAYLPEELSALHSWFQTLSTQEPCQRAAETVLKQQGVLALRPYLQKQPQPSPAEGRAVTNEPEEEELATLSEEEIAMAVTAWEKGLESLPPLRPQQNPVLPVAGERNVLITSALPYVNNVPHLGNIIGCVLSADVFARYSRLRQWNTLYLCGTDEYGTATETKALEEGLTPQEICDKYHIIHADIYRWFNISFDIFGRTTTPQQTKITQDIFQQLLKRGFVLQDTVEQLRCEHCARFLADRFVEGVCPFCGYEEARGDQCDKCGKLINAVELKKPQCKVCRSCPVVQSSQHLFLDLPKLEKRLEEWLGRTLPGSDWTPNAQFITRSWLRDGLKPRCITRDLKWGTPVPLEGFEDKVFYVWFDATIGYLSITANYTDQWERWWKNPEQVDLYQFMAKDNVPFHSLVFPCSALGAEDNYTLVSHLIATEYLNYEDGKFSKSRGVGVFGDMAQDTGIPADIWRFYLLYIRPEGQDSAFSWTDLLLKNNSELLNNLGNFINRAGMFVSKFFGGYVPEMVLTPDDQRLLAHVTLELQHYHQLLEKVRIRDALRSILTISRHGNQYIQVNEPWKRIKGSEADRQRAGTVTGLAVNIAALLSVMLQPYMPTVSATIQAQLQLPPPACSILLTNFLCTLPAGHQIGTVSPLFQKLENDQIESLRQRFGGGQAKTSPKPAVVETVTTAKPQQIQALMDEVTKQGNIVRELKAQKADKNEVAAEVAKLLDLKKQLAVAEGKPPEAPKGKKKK
Experimental: as §1, §2

CD70 = target: T6, CD70 (human, UniProt P32970 1-193); assay: as above
T6 construct: also called NP_001243.1
T6 sequence (looked up): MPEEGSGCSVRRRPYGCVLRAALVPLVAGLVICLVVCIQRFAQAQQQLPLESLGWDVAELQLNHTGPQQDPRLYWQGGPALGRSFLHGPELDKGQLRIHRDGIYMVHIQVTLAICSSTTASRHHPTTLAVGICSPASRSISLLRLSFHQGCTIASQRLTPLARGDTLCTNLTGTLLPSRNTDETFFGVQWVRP
Experimental: as §1, §2

RPS17 = RPS17 (UniProt P08708 2-135); assay: co-IP with anti-FLAG, mass spectrometry; C-FLAG B3GNT2
Experimental: as §1
(§3) Magnetic beads were resuspended in 100 mM Tris pH 7.8, reduced, alkylated and digested with trypsin at 37° ° C. overnight. This solution was subjected to solid phase extraction to concentrate the peptides and remove unwanted reagents followed by injection onto a Shimadzu HPLC with fraction collector. Eight fractions were collected and after concentration were injected on a Waters NanoAcquity HPLC equipped with a self-packed Aeris 3 μm C18 analytical column 0.075 mm by 20 cm, (Phenomenex). Peptides were eluted using standard reverse-phase gradients. The effluent from the column was analyzed using a Thermo Orbitrap Elite mass spectrometer (nanospray configuration) operated in a data dependent manner for 54 minutes. The resulting fragmentation spectra were correlated against the known database using Proteome Discover 1.4 (Thermo Fisher Scientific).

PPIA = target: T7, PPIA (UniProt P62937 2-165); assay: as above
T7 construct: Endogenous protein found in the co-IP by mass spectrometry; also called NP_066953.1
Experimental: as §1, §3

ENO1 = target: T8, ENO1 (UniProt P06733 2-434); assay: as above
T8 construct: Endogenous protein found in the co-IP by mass spectrometry; also called NP_001419.1
Experimental: as §1, §3

SPRR2E = target: T9, SPRR2E (UniProt P22531 1-72); assay: as above
T9 construct: Protein found in the co-IP by mass spectrometry; also called NP_001019380.2
T9 sequence (looked up): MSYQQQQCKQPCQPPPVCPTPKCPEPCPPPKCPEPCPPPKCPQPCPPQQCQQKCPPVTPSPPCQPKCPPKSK
Experimental: as §1, §3

RPS11 = RPS11 (UniProt P62280 2-158); assay: as above
Experimental: as §1, §3

TRIM21 = target: T10, TRIM21 (UniProt P19474 1-475); assay: as above
T10 construct: Endogenous protein found in the co-IP by mass spectrometry; also called NP_003132.2
Experimental: as §1, §3

S100A8 = target: T11, S100A8 (UniProt P05109 1-93); assay: as above
T11 construct: Protein found in the co-IP by mass spectrometry; also called NP_002955.2
T11 sequence (looked up): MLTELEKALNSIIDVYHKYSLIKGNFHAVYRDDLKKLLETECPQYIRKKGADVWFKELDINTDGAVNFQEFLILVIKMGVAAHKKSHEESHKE
Experimental: as §1, §3

AHNAK = target: T12, AHNAK (UniProt Q09666 1-5890); assay: as above
T12 construct: Endogenous protein found in the co-IP by mass spectrometry; also called NP_001611.1
Experimental: as §1, §3

S100A9 = target: T13, S100A9 (UniProt P06702 1-114); assay: as above
T13 construct: Protein found in the co-IP by mass spectrometry; also called NP_002956.1
T13 sequence (looked up): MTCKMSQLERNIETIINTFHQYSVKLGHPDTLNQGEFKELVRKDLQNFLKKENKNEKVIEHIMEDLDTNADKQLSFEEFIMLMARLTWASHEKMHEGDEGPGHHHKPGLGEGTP
Experimental: as §1, §3

T7 sequence (P62937 2-165 limits assumed): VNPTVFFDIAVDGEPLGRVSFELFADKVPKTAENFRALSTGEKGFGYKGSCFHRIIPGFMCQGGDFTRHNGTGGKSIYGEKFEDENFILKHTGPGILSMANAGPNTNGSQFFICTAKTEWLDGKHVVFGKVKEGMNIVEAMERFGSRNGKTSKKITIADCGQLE
T8 sequence (P06733 2-434 limits assumed): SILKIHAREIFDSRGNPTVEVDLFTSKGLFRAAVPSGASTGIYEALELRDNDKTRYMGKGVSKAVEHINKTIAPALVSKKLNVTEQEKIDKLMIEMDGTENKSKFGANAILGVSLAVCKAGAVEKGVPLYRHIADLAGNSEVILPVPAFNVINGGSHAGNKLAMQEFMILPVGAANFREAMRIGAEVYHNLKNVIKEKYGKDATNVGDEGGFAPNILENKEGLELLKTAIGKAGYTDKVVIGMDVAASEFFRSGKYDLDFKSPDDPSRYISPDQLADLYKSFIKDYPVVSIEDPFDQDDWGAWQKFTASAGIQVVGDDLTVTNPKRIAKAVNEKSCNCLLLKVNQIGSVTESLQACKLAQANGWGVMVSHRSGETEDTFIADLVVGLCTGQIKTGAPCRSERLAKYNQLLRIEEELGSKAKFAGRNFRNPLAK
T4 sequence (P55036 whole entry): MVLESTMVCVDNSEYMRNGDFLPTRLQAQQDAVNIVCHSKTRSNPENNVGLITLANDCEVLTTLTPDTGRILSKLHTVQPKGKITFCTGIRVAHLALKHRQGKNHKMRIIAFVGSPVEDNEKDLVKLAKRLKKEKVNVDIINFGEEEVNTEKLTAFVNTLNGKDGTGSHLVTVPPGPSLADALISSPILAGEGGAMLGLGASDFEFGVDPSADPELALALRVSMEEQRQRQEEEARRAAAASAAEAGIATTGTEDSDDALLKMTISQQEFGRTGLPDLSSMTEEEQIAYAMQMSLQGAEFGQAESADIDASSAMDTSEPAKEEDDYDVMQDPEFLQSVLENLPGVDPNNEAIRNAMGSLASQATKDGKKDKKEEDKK
T10 sequence (P19474 whole entry): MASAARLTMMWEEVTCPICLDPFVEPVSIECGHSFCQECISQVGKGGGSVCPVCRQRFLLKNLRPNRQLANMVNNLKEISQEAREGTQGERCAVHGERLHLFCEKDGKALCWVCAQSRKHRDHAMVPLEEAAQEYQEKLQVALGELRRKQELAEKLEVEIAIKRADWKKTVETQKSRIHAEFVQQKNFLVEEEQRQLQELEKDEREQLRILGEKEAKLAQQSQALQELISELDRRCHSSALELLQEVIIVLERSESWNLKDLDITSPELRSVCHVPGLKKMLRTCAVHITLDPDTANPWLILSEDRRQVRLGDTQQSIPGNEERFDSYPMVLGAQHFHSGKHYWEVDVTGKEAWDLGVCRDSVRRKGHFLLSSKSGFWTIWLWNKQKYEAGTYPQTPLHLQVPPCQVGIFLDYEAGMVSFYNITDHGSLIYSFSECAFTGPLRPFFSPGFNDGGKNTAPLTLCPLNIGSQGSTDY

binding result [1]: binds | binding result [2]: binds | binding result [3]: binds
B1: FLAG tagged B3GNT2 (N- or C-terminal FLAG tag) (enzyme, human, UniProt Q9NY97 1-397, looked up)
chain: MSVGRRRIKLLGILMMANVFIYFIMEVSKSSSQEKNGKGEVIIPKEKFWKISTPPEAYWNREQEKLNRQYNPILSMLTNQTGEAGRLSNISHLNYCEPDLRVTSVVTGFNNLPDRFKDFLLYLRCRNYSLLIDQPDKCAKKPFLLLAIKSLTPHFARRQAIRESWGQESNAGNQTVVRVFLLGQTPPEDNHPDLSDMLKFESEKHQDILMWNYRDTFFNLSLKEVLFLRWVSTSCPDTEFVFKGDDDVFVNTHHILNYLNSLSKTKAKDLFIGDVIHNAGPHRDKKLKYYIPEVVYSGLYPPYAGGGGFLYSGHLALRLYHITDQVHLYPIDDVYTGMCLQKLGLVPEKHKGFRTFDIEEKNKNNICSYVDLMLVHSRKPQEMIDIWSQLQSAHLKC
notes: The text speaks of the co-IP of B3GNT2 without separating the N-FLAG and C-FLAG constructs, so both are held as one molecule; also called N-FLAG B3GNT2; C-FLAG B3GNT2; not shown: FLAG tag at the N- or the C-terminus

co-IP mass spectrometry count (PSMD4): 0 | co-IP mass spectrometry count (MARS): 0 | co-IP mass spectrometry count (CD70): 2
B2: C-terminal FLAG tagged B3GNT2 (enzyme, human, UniProt Q9NY97 1-397, looked up)
chain: B1 chain
notes: Bait of the co-IP; pulled down with mouse anti-FLAG (Millipore Sigma F3165) from cell lysate; also called C-FLAG B3GNT2; C-term flag; not shown: C-terminal FLAG tag

co-IP mass spectrometry count (RPS17): 10 | co-IP mass spectrometry count (PPIA): 0 | co-IP mass spectrometry count (ENO1): 4 | co-IP mass spectrometry count (SPRR2E): 0 | co-IP mass spectrometry count (RPS11): 18 | co-IP mass spectrometry count (TRIM21): 0 | co-IP mass spectrometry count (S100A8): 3 | co-IP mass spectrometry count (AHNAK): 2 | co-IP mass spectrometry count (S100A9): 9
B3: C-terminal FLAG tagged B3GNT2 (enzyme, human, UniProt Q9NY97 1-397, looked up)
chain: B1 chain
notes: FLAG-tagged ORF overexpressed in cells; bait of the anti-FLAG co-IP; also called C-FLAG B3GNT2; C-term flag; not shown: FLAG tag at the C-terminus
